Usually Kd stands for the concentration at which binding is half-saturated.

For this data set, the target named is T1, hnRNP H1 (recombinant) (UniProt P31943 1-449).
T1 sequence: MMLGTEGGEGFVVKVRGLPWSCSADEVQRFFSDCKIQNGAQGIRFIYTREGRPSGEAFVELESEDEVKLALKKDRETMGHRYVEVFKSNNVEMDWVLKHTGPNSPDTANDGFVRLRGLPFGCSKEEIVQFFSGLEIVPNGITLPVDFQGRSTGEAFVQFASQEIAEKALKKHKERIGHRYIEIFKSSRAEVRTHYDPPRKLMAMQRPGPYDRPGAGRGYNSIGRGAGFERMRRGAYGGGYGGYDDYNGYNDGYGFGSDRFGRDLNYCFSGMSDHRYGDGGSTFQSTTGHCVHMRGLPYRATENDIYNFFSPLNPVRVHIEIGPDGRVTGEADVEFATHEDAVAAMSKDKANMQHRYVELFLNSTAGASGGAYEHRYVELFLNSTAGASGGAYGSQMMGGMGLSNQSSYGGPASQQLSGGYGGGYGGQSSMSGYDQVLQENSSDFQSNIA
In words: EMSA; 30 nM tRNA; EMSA: 50 mM Tris pH 8, 50 mM NaCl, 2 mM EDTA, 0.5% BSA, 0.2% CHAPS, 0.3 nM RNA, 30 nM tRNA, 0-640 nM H1, 30 min 37 C, native 6% PAGE. UV crosslinking: ~1 nM RNA in U87 nuclear extract. Particulars: protein: recombinant, (pRSET-C vector, Ni-NTA), label: 32P. Background: Mobility shift assays separate free from complexed probe on a gel.

In the case of GGGGCCGGGGCCGGGGCCGGGGCC (ssRNA, all G replaced by 7-deaza-G (transcribed with 7-deaza-GTP)) [4R-7dG], where the note is “G-quadruplex destabilized”, the Kd is 13.5 ± 3 nM.
As for GGGGCCGGGGCCGGGGCCGGGGCC (structured_RNA) [4R], the Kd (G-quadruplex, can be intramolecular) is 75.5 ± 14 nM.

The values above are taken from article PMC5050020, “The C9ORF72 GGGGCC expansion forms RNA G-quadruplex inclusions and sequesters hnRNP H to disrupt splicing in ALS brains”.
